Data taken from publication PMC10976854.
Where “and” joins values, the source holds several entries; their conditions need not be identical. Equal entries are not always repeated.

Assays:
[1] = molecular target: collagenase-cleaved xZP2-N2N3 (Xenopus); assay: native MS
[2] = molecular target: collagenase-cleaved xZP2-N2N3 (Xenopus); assay: SEC-MALS
[3] = molecular target: Xenopus egg exudate-cleaved xZP2-N2N3 (Xenopus); assay: native MS
[4] = molecular target: Xenopus egg exudate-cleaved xZP2-N2N3 (Xenopus); assay: SEC-MALS

| stoichiometry N [1] | stoichiometry N [2] | stoichiometry N [3] | stoichiometry N [4] | Binder |
| --- | --- | --- | --- | --- |
| 4 | 4 | – | – | collagenase-cleaved xZP2-N2N3 (domain or fragment, modifications not checked) chain 1: DEPGSSVVTCTKDSMTVRIPRTLSGFDDEIP chain 2: VAAPSFWDLEVKFTGQTSLLGMSEARQRGYQFSSDPYYLTVQASYSAFGLNVFNLENQRLYVADLRLVSQFGSPRISIDTPMICARDSPSCNSTHATVLIPFFGGVLTGINVNSVNIQLSSYSLQQHGITLDSRNGYRLYIKRSTLKGDRNDVLVLTFIYYGKTVPMLISLVCSGGSN |
| – | – | 2 and 4 | 4 and 2 | Xenopus egg exudate-cleaved xZP2-N2N3 (domain or fragment, modifications not checked) chain 1: DEPGSSVVTCTKDSMTVRIPRTLSGFDDEIP chain 2: VAAPSFWDLEVKFTGQTSLLGMSEARQRGYQFSSDPYYLTVQASYSAFGLNVFNLENQRLYVADLRLVSQFGSPRISIDTPMICARDSPSCNSTHATVLIPFFGGVLTGINVNSVNIQLSSYSLQQHGITLDSRNGYRLYIKRSTLKGDRNDVLVLTFIYYGKTVPMLISLVCSGGSN |
